# Laboratory results from PMC2759517 (2009).
# Where no end group is shown, it is not given here.
# How the values were obtained:
# HA-tagged PA of FluA = HA-tagged PA of FluA (Influenza A virus); experiment: ELISA
# HA-tagged PA of FluB = biological target: T1, HA-tagged PA of FluB (Influenza B virus); experiment: ELISA
# T1 chain: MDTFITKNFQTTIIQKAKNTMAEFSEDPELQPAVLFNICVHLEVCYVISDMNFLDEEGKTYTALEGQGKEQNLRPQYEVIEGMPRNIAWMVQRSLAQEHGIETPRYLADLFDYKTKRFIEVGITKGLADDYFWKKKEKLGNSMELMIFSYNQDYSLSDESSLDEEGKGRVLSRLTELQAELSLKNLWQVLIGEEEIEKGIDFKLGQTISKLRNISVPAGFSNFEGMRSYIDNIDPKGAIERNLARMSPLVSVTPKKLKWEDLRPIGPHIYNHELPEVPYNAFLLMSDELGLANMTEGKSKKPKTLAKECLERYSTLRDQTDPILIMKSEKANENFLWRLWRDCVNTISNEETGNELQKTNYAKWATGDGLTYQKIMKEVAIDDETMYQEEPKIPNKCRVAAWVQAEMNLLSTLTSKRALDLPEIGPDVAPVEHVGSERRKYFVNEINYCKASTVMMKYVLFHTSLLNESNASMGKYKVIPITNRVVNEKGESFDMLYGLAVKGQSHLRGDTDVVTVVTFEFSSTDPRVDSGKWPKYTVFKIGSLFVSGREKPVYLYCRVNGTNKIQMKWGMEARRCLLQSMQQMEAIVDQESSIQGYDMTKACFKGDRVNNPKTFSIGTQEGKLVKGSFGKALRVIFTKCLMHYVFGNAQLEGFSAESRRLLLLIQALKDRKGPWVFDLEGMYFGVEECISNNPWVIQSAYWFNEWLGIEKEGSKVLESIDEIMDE
Binder,IC50 (HA-tagged PA of FluA),IC50 (HA-tagged PA of FluB)
MNINPYFLFIDVPIQ-NH2 [PB1_(1–15)B competitor peptide],> 3000 nM,45 nM
MDVNPTLLFLKVPAQ-NH2 [PB1_(1–15)A competitor peptide],,> 3000 nM
